Reference: patent US20080015165A1, “NOVEL POLYPEPTIDE” (KYOWA HAKKO KOGYO CO., LTD., priority 1998, published 2008)

Key:
Namalwa KJM-1 cells = test: Indirect fluorescent antibody staining (FACS) of transformed Namalwa KJM-1 cells; assay type: cell-based, human; details: antibodies CSLEX-1, KM93; FIG. 2 (also Namalwa cells, FIG. 1)
Excerpt: Similarly, Namalwa KJM-1 cells, into which a control plasmid (pAMo), a mouse Fuc-TIX expression plasmid (pAMo-mFT9), a human Fuc-TIV expression plasmid (pAMo-FT4), or a human Fuc-TVII expression plasmid (pAMo-FT7) had been introduced, were obtained. The cells were subjected to indirect fluorescent antibody staining using the anti-Lewis x sugar chain antibody (KM380) and an anti-sialyl Lewis x sugar chain antibodies (CSLEX-1 or KM93) (see FIG. 2).

Namalwa cells = test: Indirect fluorescent antibody staining of Namalwa cells expressing human Fuc-TIV or Fuc-TIX (VIM-2 and Le^x sugar chains); assay type: cell-based
Experimental: Using an anti-VIM-2 sugar chain antibody (anti-CDw65 antibody, manufactured by Serotec) and anti-Le^x sugar chain antibodies [73-30 (manufactured by […] CORPORATION) and anti-CD15 antibody (C3D-1, manufactured by Dako)], indirect fluorescent antibody staining was performed for Namalwa cells expressing human Fuc-TIV or human Fuc-TIX, and for Namalwa cells transfected with the control vector pAMo, which were constructed in Example 9. The VIM-2 sugar chain is a sugar chain having the structure consisting of Galβ1-4GlcNAcβ1-3Galβ1-4(Fucα1-3)GlcNAc on non-reduced terminal of a sugar chain.
Indirect fluorescent antibody staining was performed according to the method described in Example 1 (3). Anti-VIM-2 sugar chain antibodies, 73-30 and C3D-1 were used after dilution at 1:50, 1:100, and 1:50.

B1: Fuc-TIX: human Fuc-TIX, 359 amino acids (SEQ ID NO:2), α1,3-fucosyltransferase expressed from pAMo-FT9 in Namalwa cells (protein)
chain: MTSTSKGILRPFLIVCIILGCFMACLLIYIKPTNSWIFSPMESASSVLKMKNFFSTKTDYFNETTILVWVWPFGQTFDLTSCQAMFNIQGCHLTTDRSLYNKSHAVLIHHRDISWDLTNLPQQARPPFQKWIWMNLESPTHTPQKSGIEHLFNLTLTYRRDSDIQVPYGFLTVSTNPFVFEVPSKEKLVCWVVSNWNPEHARVKYYNELSKSIEIHTYGQAFGEYVNDKNLIPTISACKFYLSFENSIHKDYITEKLYNAFLAGSVPVVLGPSRENYENYIPADSFIHVEDYNSPSELAKYLKEVDKNNKLYLSYFNWRKDFTVNLPRFWESHACLACDHVKRHQEYKSVGNLEKWFWN
modifications: human
synthesis of the sialyl Lewis x sugar chain in transformed cells (Namalwa KJM-1 cells): cannot synthesize | reactivity against the anti-Le^x sugar chain antibodies [73-30 and anti-CD15 antibody] (Namalwa cells; Namalwa cells expressing Fuc-TIX compared with those expressing Fuc-TIV): greater | reactivity against the anti-VIM-2 sugar chain antibody (Namalwa cells; compared to Namalwa cells transfected with pAMo): slight increase
